Results published in PMC4601640, “Stability of the Human Hsp90-p50^Cdc37 Chaperone Complex against Nucleotides and Hsp90 Inhibitors, and the Influence of Phosphorylation by Casein Kinase 2” (Molecules, 2015).

T1: GST-p50^Cdc37 (human, UniProt Q16543 1-378)
T1 construct: p50 Cdc37, human, full length, residues 1-378, in pGEX6P-1; also called GST-tagged p50^Cdc37; source: E. coli BL21 (DE3), purified (glutathione sepharose, size exclusion); not shown: GST, N-terminal, kept
T1 sequence (looked up): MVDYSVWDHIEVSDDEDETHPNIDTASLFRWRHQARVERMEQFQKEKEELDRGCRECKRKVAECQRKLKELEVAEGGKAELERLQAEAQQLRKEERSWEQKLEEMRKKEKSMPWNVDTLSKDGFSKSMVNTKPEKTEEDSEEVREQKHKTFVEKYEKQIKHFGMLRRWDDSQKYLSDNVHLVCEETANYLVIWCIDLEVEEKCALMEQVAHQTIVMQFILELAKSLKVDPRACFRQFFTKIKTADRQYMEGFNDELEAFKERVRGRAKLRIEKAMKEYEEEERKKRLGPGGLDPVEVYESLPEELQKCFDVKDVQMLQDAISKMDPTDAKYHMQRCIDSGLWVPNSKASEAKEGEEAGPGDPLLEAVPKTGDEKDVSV

B1: human Hsp90α (1-732 Δ226-283) (natural protein)
chain: not shown
notes: Hsp90α, human, residues before the deleted section 226-283 of the construct 1-732; four glycine residues that replace the deleted section 226-283; Hsp90α, human, residues after the deleted section 226-283 of the construct 1-732; Gene synthesised by GeneArt; pET28a; also called ΔHsp90α
B2: human full-length p50^Cdc37 (residues 1-378) (natural protein, UniProt Q16543 1-378, looked up)
chain: T1 sequence (looked up)
notes: p50 Cdc37, human, full length, residues 1-378; Eluted as a dimer in size-exclusion chromatography; source: tag cleaved with PreScission protease
B3: human Hsp90β (1-724 Δ220-275) (natural protein)
chain: not shown
notes: Hsp90β, human, residues before the deleted charged linker 220-275 of the construct 1-724; four glycine residues that replace the deleted section 220-275; Hsp90β, human, residues after the deleted charged linker 220-275 of the construct 1-724; Gene synthesised by GeneArt, codon optimised for E. coli; pET28a; also called ΔHsp90; ΔHsp90β
B4: human N-terminal Hsp90β (1-219) (domain or fragment)
chain: not shown
notes: Hsp90β, human, N-terminal domain, residues 1-219; Gene synthesised by GeneArt; pET28a; also called N-Hsp90; Hsp90β-N
B5: CK2-phosphorylated human full-length p50^Cdc37 (natural protein, UniProt Q16543 1-378, looked up)
chain: T1 sequence (looked up)
modifications: phosphoserine at 13 (shown by Western blot)
notes: p50 Cdc37, human, full length, residues 1-378, phosphorylated by CK2α; also called (p)p50^Cdc37; source: E. coli Tuner (DE3), purified, then phosphorylated in vitro with purified CK2α and ATP

Experiments:
Conditions in all cases: both partners purified
GST-p50^Cdc37 = molecular target: T1, GST-p50^Cdc37; assay: ELISA; GST-p50^Cdc37 (4 µM) immobilised on glutathione-coated plates; His6-Hsp90 (4 µM) pre-incubated with nucleotides and/or inhibitors in 5% DMSO, detected with anti-His6; 50 mM HEPES pH 7.5, 150 mM NaCl, 10 mM MgCl2, 0.05% Tween-20, 0.1% BSA; room temperature
human full-length Hsp90β [1] = molecular target: T2, human full-length Hsp90β (human, UniProt P08238 1-724); assay: ITC; p50^Cdc37 (200 µM) titrated into Hsp90 (20 µM); 50 mM HEPES pH 7.5, 10 mM MgCl2, 30 °C
T2 construct: Hsp90β, human, full length, subcloned from T47D cell line cDNA into pET28a; Eluted as a dimer in size-exclusion chromatography; No step that removes the His6 tag is described; the tag is detected in the ELISA; also called hHsp90β-FL; His6-Hsp90

[2] = molecular target: T3, CK2-phosphorylated human full-length Hsp90β (human, UniProt P08238 1-724, phosphoserine at 255 (shown by Western blot); Ser226 named as a CK2 site, its phosphorylation could not be verified); assay: as above
T3 construct: Hsp90β, human, full length, phosphorylated by CK2α; only pSer255 was checked; also called (p)Hsp90; h(p)Hsp90β-FL; source: E. coli BL21 Star (DE3), purified, then phosphorylated in vitro with purified CK2α and ATP
T3 sequence (P08238 whole entry): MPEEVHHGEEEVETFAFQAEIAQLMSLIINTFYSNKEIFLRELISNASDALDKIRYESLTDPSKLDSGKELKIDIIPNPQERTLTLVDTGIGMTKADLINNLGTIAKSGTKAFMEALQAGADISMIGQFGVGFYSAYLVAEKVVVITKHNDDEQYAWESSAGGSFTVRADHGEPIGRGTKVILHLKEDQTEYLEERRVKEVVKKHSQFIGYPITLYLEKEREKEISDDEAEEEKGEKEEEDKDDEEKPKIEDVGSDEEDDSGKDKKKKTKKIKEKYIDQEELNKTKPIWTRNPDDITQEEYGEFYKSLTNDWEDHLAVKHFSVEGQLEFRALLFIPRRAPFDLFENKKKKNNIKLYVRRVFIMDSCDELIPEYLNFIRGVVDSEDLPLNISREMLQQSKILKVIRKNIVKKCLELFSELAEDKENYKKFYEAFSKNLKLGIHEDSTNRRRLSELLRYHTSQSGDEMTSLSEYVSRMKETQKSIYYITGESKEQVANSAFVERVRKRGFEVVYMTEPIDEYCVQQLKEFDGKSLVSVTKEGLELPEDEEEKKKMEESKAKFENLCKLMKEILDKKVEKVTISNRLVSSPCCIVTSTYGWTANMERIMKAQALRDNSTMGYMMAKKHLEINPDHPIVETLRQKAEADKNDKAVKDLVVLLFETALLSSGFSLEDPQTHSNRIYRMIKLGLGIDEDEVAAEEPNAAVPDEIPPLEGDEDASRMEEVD

human full-length Hsp90β [3] = molecular target: T2, human full-length Hsp90β; assay: SEC; analytical Superdex200 10/300 GL, room temperature, 0.3 mL/min; 85 µM protein in 50 mM HEPES pH 7.5, 50 mM KCl, 5 mM MgCl2, 1 mM DTT; fractions on SDS-PAGE
[4] = molecular target: B2; assay: ITC; p50^Cdc37 (200 µM) titrated into Hsp90 (20 µM); 50 mM HEPES pH 7.5, 10 mM MgCl2, 30 °C

Binder | Kd (human full-length Hsp90β [1]) | Kd [2] | Kd [4] | also measured
B1 | – | – | – | binding result (GST-p50^Cdc37): binds
B2 | 1.2 µM | 1.7 µM | – | stoichiometry N (human full-length Hsp90β [3]): 1
B3 | – | – | 1100 nM | –
B4 | – | – | 4400 nM | –
B5 | 5.1 µM | 8.6 µM | – | –
